Source: PMC11653366 (2024)

T1: F*-PLLP
T1 chain: LASRPLPLLP

B1: AblSrc SH3 SH3 (protein)
chain: PSENDPNLFVALYDFESRTETTLSITKGEKLRVLGYNTEGDWCEAQTKNGQGWVPSNYITPVNSLEK
B2: F*-p40 (peptide)
chain: APTYSPPPPP
B3: SrcAbl SH3 84-145 (protein)
chain: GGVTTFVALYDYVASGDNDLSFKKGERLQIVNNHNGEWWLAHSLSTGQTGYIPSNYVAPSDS

Columns and labels:
Assay in all cases: fluorescence anisotropy
F*-PLLP = target: T1, F*-PLLP
F*-p40 = target: B2
Src SH3 84-145 = Src SH3 84-145 (Homo sapiens, UniProt P12931)

Binder	Kd (F*-PLLP) [µM]	Kd (F*-p40) [µM]	Kd (Src SH3 84-145) [µM]
B1	> 1000	210	
B2			> 1000
B3	140	130	
